Test results from paper PMC12259648 (Frontiers in Immunology, 2025).
Substitutions are numbered along the chain they refer to.

Target: T1, Phl p 5.0101 (timothy grass)
T1 construct: Phl p 5.0101, major group 5 pollen allergen of timothy grass; The SPR methods say only 'Phl p 5 antigen'; also called major timothy grass pollen allergen Phl p 5; group 5 allergen; source: bought: Biomay, Vienna, Austria
T1 chain: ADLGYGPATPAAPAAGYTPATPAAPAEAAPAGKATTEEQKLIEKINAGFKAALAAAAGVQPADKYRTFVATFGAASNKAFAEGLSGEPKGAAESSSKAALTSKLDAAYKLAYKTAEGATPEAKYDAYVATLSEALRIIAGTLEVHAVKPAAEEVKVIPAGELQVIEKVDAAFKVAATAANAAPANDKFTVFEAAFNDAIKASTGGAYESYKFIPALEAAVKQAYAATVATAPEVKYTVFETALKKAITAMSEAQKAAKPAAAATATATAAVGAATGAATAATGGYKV
Assay: SPR; Biacore 1K+; purified IgG captured (about 100 RU) on anti-human IgG (Fc) on a CM5 chip; Phl p 5 injected at 1.875-60 nM, 25 uL/min, 120 s, 1360 s dissociation; PBS with 0.02% Tween 20; 1:1 Langmuir model
Conditions: both partners purified

B1: 212579 E38HS, G62HS (antibody, V domains shown)
VH: EVQLVESGGGLVQPGGSLRLSCAASGFTFSSYSMTWVRQAPGKGLEWISYISSSSSTIYYADSVKGRFTISRDNAKNSLYLQMNSLRAEDTAVYYCARDLRWGVMDNYYYHGMDVWGQGTTVTVSS
VL: EIVLTQSPGTLSLSPGERATLSCRASQSISSSYLTWYQQKPGQAPRLLIYGASSRATGIPDRFSGSGSGTDFTLTISRLEPEDFAVYYCQQYVSSLITFGQGTRLEIK
notes: numbers count on: IMGT numbering; as the VL of m2; IgG1, kappa; also called E38HS G62HS substituted antibody; source: Expi293F, transfected, purified (Protein A magnetic beads)
Kd: 19.6 nM | koff: 0.00262 s⁻¹ | kon: 130000 M⁻¹ s⁻¹

B2: inferred unmutated common ancestor (UCA) of antibody 212579 (antibody, V domains shown)
VH: B1 VH with S33E, T35N, I48V, S55G, H111Y
VL: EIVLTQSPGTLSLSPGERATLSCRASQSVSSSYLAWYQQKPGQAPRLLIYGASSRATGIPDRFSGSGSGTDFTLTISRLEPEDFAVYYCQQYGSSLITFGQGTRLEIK
notes: equals the inferred UCA heavy chain variable domain (GenBank PV255645, PV255646 for the two chains); numbers count on: IMGT numbering; equals the inferred UCA light chain variable domain (GenBank PV255645, PV255646 for the two chains); IgG1, kappa; also called inferred UCA; source: Expi293F, transfected, purified (Protein A magnetic beads)
Kd: 8.5 nM | koff: 0.00051 s⁻¹ | kon: 60000 M⁻¹ s⁻¹
